Laboratory results taken from patent publication US20040072256A1 (published 2004).

How the values were obtained:
[1] = target: T1, hemagglutinin (HA) of Influenza virus A/PR/8/34 (H1N1) (Influenza virus A/PR/8/34 (H1N1), UniProt P03452 18-565); test: flow cytometry on IV-infected 1106mel cells (FIG. 11)
T1 construct: whole, on cells; On IV-infected 1106mel cells; also called IV HA; viral HA

[2] = target: T2, hemagglutinin-neuraminidase (HN) glycoprotein of Sendai virus (Sendai virus); test: flow cytometry, SV-infected vs uninfected 721.221 cells
T2 construct: whole, on cells; also called SV HN; Sendai HN

[3] = target: T1, hemagglutinin (HA) of Influenza virus …; test: flow cytometry on IV-infected vs uninfected 1106mel cells
[4] = target: T2, hemagglutinin-neuraminidase (HN) …; test: flow cytometry, 293T cells transfected with Sendai HN cDNA vs mock
[5] = target: T1, hemagglutinin (HA) of Influenza virus …; test: flow cytometry, IV-infected vs uninfected 1106mel cells

T2 sequence (P19758 whole entry): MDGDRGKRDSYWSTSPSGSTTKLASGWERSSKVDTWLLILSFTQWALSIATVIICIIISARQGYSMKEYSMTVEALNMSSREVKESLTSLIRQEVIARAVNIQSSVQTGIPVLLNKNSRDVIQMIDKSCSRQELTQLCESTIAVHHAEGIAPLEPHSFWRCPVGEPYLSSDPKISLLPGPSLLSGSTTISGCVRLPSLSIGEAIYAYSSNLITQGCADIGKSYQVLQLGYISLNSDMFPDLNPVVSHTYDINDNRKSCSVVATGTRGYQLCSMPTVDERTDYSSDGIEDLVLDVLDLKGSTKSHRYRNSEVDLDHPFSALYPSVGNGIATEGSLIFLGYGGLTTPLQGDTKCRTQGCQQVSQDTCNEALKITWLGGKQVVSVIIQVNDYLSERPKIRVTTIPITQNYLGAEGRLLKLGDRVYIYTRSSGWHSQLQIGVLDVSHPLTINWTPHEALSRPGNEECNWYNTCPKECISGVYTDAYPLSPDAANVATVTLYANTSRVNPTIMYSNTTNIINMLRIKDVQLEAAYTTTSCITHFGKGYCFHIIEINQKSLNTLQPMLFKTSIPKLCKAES

Binder	fold increase in staining on SV infection [2]	binding result [3]	other results
NKp46D1-Ig fusion protein (Fc fusion, Junction between domain and Fc not described) QQQTLPKPFIWAEPHFMVPKEKQVTICCQGNYGAVEYQLHFEGSLFAVDRPKPPERINKVKFYIPDMNSRMAGQYSCIYRVGELWSEPSNLLDLVVTEMDPEPKSSDKTHTCPPCPAPEFEGAPSVFLFPPKPKDTLMISRTPEVTCVVVDVSHEDPEVKFNWYVDGVEVHNAKTKPREEQYNSTYRVVSVLTVLHQDWLNGKEYKCKVSNKALPAPIEKTISKAKGQPREPQVYTLPPSRDELTKNQVSLTCLVKGFYPSDIAVEWESNGQPENNYKTTPPVLDSDGSFFLYSKLTVDKSRWQQGNVFSCSVMHEALHNHYTQKSLSLSPGK	–	–	binding result [1]: no binding
NKp46D2-Ig fusion protein (Fc fusion, sialic acid residues (binding depends on them), Junction and leader used for secretion not described) YDTPTLSVHPGPEVISGEKVTFYCRLDTATSMFLLLKEGRSSHVQRGYGKVQAEFPLGPVTTAHRGTYRCFGSYNNHAWSFPSEPVKLLVTGDIENTSLAPEDPTFPADTWGTYLLTTETGLQKDHALWDHTAQDPEPKSSDKTHTCPPCPAPEFEGAPSVFLFPPKPKDTLMISRTPEVTCVVVDVSHEDPEVKFNWYVDGVEVHNAKTKPREEQYNSTYRVVSVLTVLHQDWLNGKEYKCKVSNKALPAPIEKTISKAKGQPREPQVYTLPPSRDELTKNQVSLTCLVKGFYPSDIAVEWESNGQPENNYKTTPPVLDSDGSFFLYSKLTVDKSRWQQGNVFSCSVMHEALHNHYTQKSLSLSPGK	~10 fold	–	–
KIR-1-Ig fusion protein (Fc fusion, extracellular domain; not shown: Fc portion of human IgG1) HEGVHRKPSLLAHPGRLVKSEETVILQCWSDVMFEHFLLHREGMFNDTLRLIGEHHDGVSKANFSISRMTQDLAGTYRCYGSVTHSPYQVSAPSDPLDIVIIGLYEKPSLSAQLGPTVLAGENVTLSCSSRSSYDMYHLSREGEAHERRLPAGPKVNGTFQADFPLGPATHGGTYRCFGSFHDSPYEWSKSSDPLLVSVTGNPSNSWPSPTEPSSKTGNPRHLH	–	no binding	–
NKp30-Ig fusion protein (Fc fusion) LWVSQPPEIRTLEGSSAFLPCSFNASQGRLAIGSVTWFRDEVVPGKEVRNGTPEFRGRLAPLASSRFLHDHQAELHIRDVRGHDASIYVCRVEVLGLGVGTGNGTRLVVEKEHPQLGDPEPKSSDKTHTCPPCPAPEFEGAPSVFLFPPKPKDTLMISRTPEVTCVVVDVSHEDPEVKFNWYVDGVEVHNAKTKPREEQYNSTYRVVSVLTVLHQDWLNGKEYKCKVSNKALPAPIEKTISKAKGQPREPQVYTLPPSRDELTKNQVSLTCLVKGFYPSDIAVEWESNGQPENNYKTTPPVLDSDGSFFLYSKLTVDKSRWQQGNVFSCSVMHEALHNHYTQKSLSLSPGK	–	no binding	–
NKAT-8-Ig fusion protein (Fc fusion, extracellular domain; not shown: Fc portion of human IgG1) QEGVHRKPSFLALPGHLVKSEETVILQCWSDVMFEHFLLHREGKFNNTLHLIGEHHDGVSKANFSIGPMMPVLAGTYRCYGSVPHSPYQLSAPSDPLDMVIIGLYEKPSLSAQPGPTVQAGENVTLSCSSRSSYDMYHLSREGEAHERRLPAVRSINGTFQADFPLGPATHGGTYRCFGSFRDAPYEWSNSSDPLLVSVTGNPSNSWPSPTEPSSKTGNPRHLH	–	no binding	–
NKp44-Ig fusion protein (Fc fusion, sialylated oligosaccharides (binding to HA depends on them), Made in COS-7, purified on protein G) QSKAQVLQSVAGQTLTVRCQYPPTGSLYEKKGWCKEASALVCIRLVTSSKPRTMAWTSRFTIWDDPDAGFFTVTMTDLREEDSGHYWCRIYRPSDNSVSKSVRFYLVVSPASASTQTPWTPRDLVSSQTQTQSCVPPTAGARQAPESPSTIPVPSQPQNSTLRPGPAAPDPEPKSSDKTHTCPPCPAPEFEGAPSVFLFPPKPKDTLMISRTPEVTCVVVDVSHEDPEVKFNWYVDGVEVHNAKTKPREEQYNSTYRVVSVLTVLHQDWLNGKEYKCKVSNKALPAPIEKTISKAKGQPREPQVYTLPPSRDELTKNQVSLTCLVKGFYPSDIAVEWESNGQPENNYKTTPPVLDSDGSFFLYSKLTVDKSRWQQGNVFSCSVMHEALHNHYTQKSLSLSPGK	10 fold	–	fold increase in staining on HN transfection [4]: 2 fold; fold increase in staining on IV infection [5]: ~4 fold
